Molecular target: purified Ca/CaM from bovine brain (bovine, UniProt P62157 1-149)
Experiment: fluorescence polarisation

Kd: 190 nM
B1: PP-C peptide (peptide)
chain: ETWKAFLESVKKLGKG
